Experimental data: the supplement of paper PMC9732359
± gives the uncertainty stated by the source.

Assay: protein stability index of a GFP-peptide fusion (yeast GPS) (PSI 1-4); higher = more stable; sorted into four equal gates, so the index is relative within each strain
Outline: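 The protein stability index combines read frequencies across sorting gates, each weighted by its gate number and then summed. To obtain those frequencies, a pooled yeast library of GFP fusions to tiled 17-residue yeast protein peptides, on a plasmid also expressing Cherry, was grown to mid-log phase in leucine-free medium. The cells were sorted into four equal gates by GFP/Cherry ratio before plasmid amplification by PCR and Illumina sequencing.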

Sequence | protein stability index (doa10∆) | protein stability index (pdr5∆) | protein stability index (san1∆) | protein stability index (ubr1∆)
ELGNMTMLITGQRPDRA [SIN4] | 2.54 ± 0.09 | 2.83 ± 0.056 | 2.69 ± 0.09 | 2.31 ± 0.073
VQYLSGAHGNSDPVCLF [POP3] | 2.96 ± 0.12 | 2.83 ± 0.18 | 3.04 ± 0.11 | 2.75 ± 0.063
LQGEVENIAQMKPKAEK [SMC4] | 3.02 ± 0.15 | 3.4 ± 0.12 | 3.19 ± 0.075 | 3.11 ± 0.075
GSLSGNSSSMEEVMRIA [ESC2] | 2.9 ± 0.074 | 2.88 ± 0.11 | 2.45 ± 0.12 | 2.73 ± 0.083
QPASYHSVQETNKISPK [SSN2] | 3.34 ± 0.098 | 3.1 ± 0.12 | 3.08 ± 0.068 | 1.91 ± 0.069
IYKRGQAGVTKASVTIV [SMC2] | 1.61 ± 0.093 | 1.73 ± 0.083 | 1.78 ± 0.13 | 1.16 ± 0.11
LNSTLESLYDLIEFQPS [MED6] | 2.8 ± 0.049 | 2.85 ± 0.046 | 2.88 ± 0.039 | 2.76 ± 0.048
PYLPKHYLVLLVAKFLY [YJR042W/NUP85] | 1.3 ± 0.084 | 1.28 ± 0.06 | 1.16 ± 0.15 | 1.21 ± 0.052
DTAGEESQQQDESLKDE [SWI3] | 3.36 ± 0.2 | – | 3.13 ± 0.16 | 3.61 ± 0.29
MAAQKSFRIKQKMAKAK [RPL39] | 2.75 ± 0.072 | 2.97 ± 0.11 | 2.25 ± 0.083 | 2.74 ± 0.08
LGPGIYCDPNTQEIRPV [RRP40] | 2.62 ± 0.057 | 2.78 ± 0.051 | 2.53 ± 0.057 | 2.59 ± 0.058
LVDSLATFTSIELTSYE [RPN7] | 1.57 ± 0.057 | 2.08 ± 0.061 | 1.68 ± 0.057 | 1.72 ± 0.027
LTSQAPQTTQMFQSQSQ [YDL088C/ASM4] | 3.12 ± 0.11 | 3.16 ± 0.071 | 3.08 ± 0.046 | 3.06 ± 0.057
QFNAQGVRDINCVNDVL [POP1] | 2.92 ± 0.17 | 2.92 ± 0.17 | 2.91 ± 0.11 | –
CCTKFFTMMTSEPLTLK [PCI8] | 2.03 ± 0.07 | 2.15 ± 0.057 | 1.98 ± 0.12 | 1.64 ± 0.053
FSKAIEWDMLNVEEEQI [BRR2] | 2.71 ± 0.078 | 3.03 ± 0.11 | 2.54 ± 0.07 | 2.93 ± 0.06
LKSQMDTSKALLNVSVN [SKI6] | 3.22 ± 0.13 | 2.92 ± 0.12 | 3.23 ± 0.13 | 3.07 ± 0.053
ISLYLLNLLSQNNTTKF [RPN12] | 1.53 ± 0.044 | 1.72 ± 0.054 | 1.32 ± 0.073 | 1.36 ± 0.039
VQASVTSSTHERKSKTY [RET1] | 2.6 ± 0.066 | 2.78 ± 0.079 | 2.55 ± 0.056 | 2.97 ± 0.061
QTLKGVGVENNGQYAAF [RPC37] | 3.12 ± 0.14 | 3.31 ± 0.098 | 2.9 ± 0.18 | 2.94 ± 0.2
NGLGTSHINTNVGDNNS [ARP7] | 3.13 ± 0.12 | 2.77 ± 0.099 | 2.74 ± 0.082 | 3.28 ± 0.11
VPKEGLFYFDSSFRPCP [BRR2] | 3.17 ± 0.068 | 3.28 ± 0.058 | 3.38 ± 0.046 | 3.14 ± 0.039
SASLHLNYGVYLNGTLI [RET1] | 2.65 ± 0.16 | – | 3.09 ± 0.1 | 3.18 ± 0.092
LEEVSLKWIDTASKFGK [RPL3] | 1.75 ± 0.097 | 1.91 ± 0.092 | 1.8 ± 0.12 | 1.95 ± 0.089
VPTGGASSAAAGAAGAA [RPP2B] | 2.88 ± 0.11 | 3.04 ± 0.083 | 3.17 ± 0.07 | 2.97 ± 0.1
TLKPTFSFTEPAQKDSS [YOR098C/NUP1] | 2.78 ± 0.059 | 3.05 ± 0.067 | 2.99 ± 0.065 | 2.53 ± 0.037

Sequence | protein stability index (doa10∆) | protein stability index (pdr5∆) | protein stability index (san1∆) | protein stability index (ubr1∆)
EAESQLRAAQQQWGNDF [FAS2] | 3.12 ± 0.072 | 3.35 ± 0.063 | 3.07 ± 0.072 | 3.23 ± 0.044
LRAIEKNDDNSCRNPEH [YIL149C/MLP2] | 3.19 ± 0.16 | 3.25 ± 0.088 | 3.27 ± 0.13 | 3.15 ± 0.14
VPKLESSRTKFWSFLDS [YJL039C/NUP192] | 1.61 ± 0.29 | – | 1.61 ± 0.13 | 1.44 ± 0.096
GTSVISMKYDNGVIIAA [PRE4] | 2.05 ± 0.19 | – | – | –
HHYRPDMTTEEGLDLLK [PRE1] | 3.32 ± 0.19 | 3.41 ± 0.17 | – | 3.53 ± 0.093
RSMDAEQLGHASKRHKP [RPP1] | 2.55 ± 0.056 | 2.87 ± 0.053 | 2.73 ± 0.054 | 2.74 ± 0.046
SDMENDNLLLNLEQINE [REC8] | 2.76 ± 0.056 | 2.75 ± 0.048 | 2.72 ± 0.06 | 2.86 ± 0.048
DRAQNSYQPMYQRPMQV [SSN3] | 1.55 ± 0.047 | 1.73 ± 0.057 | 1.55 ± 0.16 | 2.64 ± 0.041
GRLDRKVEIPLPNEAGR [RPT4] | 3.16 ± 0.13 | 3.27 ± 0.1 | 3.11 ± 0.065 | 3.09 ± 0.1
VIEAKINHEDGFIETTE [RPN3] | 1.17 ± 0.16 | 1.37 ± 0.11 | 1.3 ± 0.19 | 1.13 ± 0.083
MGKKTFREWQYFKLSIT [POP8] | 1.5 ± 0.046 | 1.76 ± 0.045 | 1.47 ± 0.099 | 1.71 ± 0.042
PSTGSNLQQQQQQQIQV [YGR119C/NUP57] | – | 2.55 ± 0.19 | – | –
STQELQTRAKLLDNEIR [RPT5] | 3.2 ± 0.15 | 3.05 ± 0.085 | 3.03 ± 0.083 | 2.98 ± 0.044
EPKKDKESIVLPTVGFD [YOR098C/NUP1] | 2.43 ± 0.18 | 3.43 ± 0.19 | 3.11 ± 0.16 | 2.92 ± 0.07
ISDDDDSALRYSILGDR [POP4] | 3.12 ± 0.066 | 2.97 ± 0.093 | 2.61 ± 0.052 | 2.72 ± 0.089
INYAFSMDEEFKNMDCI [SIR3] | 3.21 ± 0.051 | 3.22 ± 0.042 | 3.26 ± 0.033 | 3.321 ± 0.031
NFEKPKNSSQLLNEWSH [RPN5] | 2.83 ± 0.087 | 3.11 ± 0.078 | 2.88 ± 0.063 | 3.12 ± 0.087
NIAFDAHMSIGCLHKGK [YML031W/NDC1] | 3.07 ± 0.15 | 2.7 ± 0.089 | 1.55 ± 0.15 | 2.27 ± 0.086
RNISFSDNNSRIMSRNF [SWI1] | 2.93 ± 0.047 | 2.85 ± 0.057 | 2.9 ± 0.068 | 3.16 ± 0.035
SYANLPGTITHGMFSSA [FAS1] | 2.64 ± 0.06 | 2.15 ± 0.051 | 2.16 ± 0.055 | 2.51 ± 0.035
VKKGPVRLPTKVLKIST [RPS20] | 2.22 ± 0.062 | 2.22 ± 0.085 | 2.54 ± 0.058 | 2.37 ± 0.064
NNVDNKYKSGGKFSFSP [SSN2] | 2.23 ± 0.054 | 2.37 ± 0.044 | 2.63 ± 0.064 | 2.17 ± 0.038
GSSASSRKAHGLNAKQL [POP1] | 3.21 ± 0.069 | 3.27 ± 0.084 | 3.13 ± 0.077 | 3.04 ± 0.066
TIFSPEGRLYQVEYALE [PRE9] | 3.13 ± 0.079 | 3.32 ± 0.088 | 3.14 ± 0.11 | 3.12 ± 0.051
PQMFLNQQAQARQQVAQ [GAL11] | 2.66 ± 0.15 | 2.46 ± 0.13 | 1.9 ± 0.27 | 1.7 ± 0.091
LPGELAKHAVSEGTRAV [HTB1] | 3.22 ± 0.11 | 3.46 ± 0.12 | 3.42 ± 0.071 | 3.31 ± 0.088
